The labels stand for the following.
B1: antibody containing VH3-IgG1-F890 for the heavy chain and L(WT)-CK for the light chain (antibody)
heavy: QVQLQESGPGLVKPSETLSLTCAVSGHSISHDHAWSWVRQPPGEGLEWIGFISYSGITNYNPSLQGRVTISRDNSKNTLYLQMNSLRAEDTAVYYCARSLARTTAMDYWGEGTLVTVSSASTKGPSVFPLAPSSKSTSGGTAALGCLVKDYFPEPVTVSWNSGALTSGVHTFPAVLQSSGLYSLSSVVTVPSSSLGTQTYICNVNHKPSNTKVDKKVEPKSCDKTHTCPPCPAPELLGGPSVFLFPPKPKDTLYISRTPEVTCVVVDVSHEDPEVKFNWYVDGVEVHNAKTKPREEQYNSTYRVVSVLTVLHQDWLNGKEYKCKVSNKALPAPIEKTISKAKGQPREPQVYTLPPSRDELTKNQVSLTCLVKGFYPSDIAVEWESNGQPENNYKTTPPVLDSDGSFFLYSKLTVDKSRWQQGNVFSCSVMHEALHYHVTQKSLSLSP
light: not shown
B2: antibody containing VH3-IgG1-F947 for the heavy chain and L(WT)-CK for the light chain (antibody)
heavy: QVQLQESGPGLVKPSETLSLTCAVSGHSISHDHAWSWVRQPPGEGLEWIGFISYSGITNYNPSLQGRVTISRDNSKNTLYLQMNSLRAEDTAVYYCARSLARTTAMDYWGEGTLVTVSSASTKGPSVFPLAPSSKSTSGGTAALGCLVKDYFPEPVTVSWNSGALTSGVHTFPAVLQSSGLYSLSSVVTVPSSSLGTQTYICNVNHKPSNTKVDKKVEPKSCDKTHTCPPCPAPELLGGPSVFLFPPKPKDVLYISRTPEVTCVVVDVSHEDPEVKFNWYVDGVEVHNAKTKPREEQYNSTYRVVSVLQPLHADWLNGKEYKCKVSNKALPAPIEKTISKAKGQPREPQVYTLPPSRDELTKNQVSLTCLVKGFYPSDIAVEWESNGQPENNYKTTPPVLDSDGSFFLYSKLTVDKSRWQQGNVFSCSVMHEALHYHVTQKSLSLSP
light: not shown
B3: antibody containing VH3-IgG1-F1325 for the heavy chain and L(WT)-CK for the light chain (antibody)
heavy: QVQLQESGPGLVKPSETLSLTCAVSGHSISHDHAWSWVRQPPGEGLEWIGFISYSGITNYNPSLQGRVTISRDNSKNTLYLQMNSLRAEDTAVYYCARSLARTTAMDYWGEGTLVTVSSASTKGPSVFPLAPSSKSTSGGTAALGCLVKDYFPEPVTVSWNSGALTSGVHTFPAVLQSSGLYSLSSVVTVPSSSLGTQTYICNVNHKPSNTKVDKKVEPKSCDKTHTCPPCPAPEAAGGPSVFLFPPKPKDTLYISRTPEVTCVVVDVSHEDPEVKFNWYVDGVEVHNAKTKPREEQYASTYRVVSVLTVLHQDWLNGKEYKCKVSNKALPAPIEKTISKAKGQPREPQVYTLPPSRDELTKNQVSLTCLVKGFYPSDIAVEWESNGQPENNYKTTPPVLDSDGSFFLYSKLTVDKSRWQQGNVFSCSVMHEALHYHVTQKSLSLSP
light: not shown
B4: antibody containing VH3-IgG1-F1333 for the heavy chain and L(WT)-CK for the light chain (antibody)
heavy: QVQLQESGPGLVKPSETLSLTCAVSGHSISHDHAWSWVRQPPGEGLEWIGFISYSGITNYNPSLQGRVTISRDNSKNTLYLQMNSLRAEDTAVYYCARSLARTTAMDYWGEGTLVTVSSASTKGPSVFPLAPSSKSTSGGTAALGCLVKDYFPEPVTVSWNSGALTSGVHTFPAVLQSSGLYSLSSVVTVPSSSLGTQTYICNVNHKPSNTKVDKKVEPKSCDKTHTCPPCPAPELRRGPKVFLFPPKPKDTLYISRTPEVTCVVVDVSHEDPEVKFNWYVDGVEVHNAKTKPREEQYNSTYRVVSVLTVLHQDWLNGKEYKCKVSNKALPAPIEKTISKAKGQPREPQVYTLPPSRDELTKNQVSLTCLVKGFYPSDIAVEWESNGQPENNYKTTPPVLDSDGSFFLYSKLTVDKSRWQQGNVFSCSVMHEALHYHVTQKSLSLSP
light: not shown
B5: antibody containing VH3-IgG1-F1318 for the heavy chain and L(WT)-CK for the light chain (antibody)
heavy: QVQLQESGPGLVKPSETLSLTCAVSGHSISHDHAWSWVRQPPGEGLEWIGFISYSGITNYNPSLQGRVTISRDNSKNTLYLQMNSLRAEDTAVYYCARSLARTTAMDYWGEGTLVTVSSASTKGPSVFPLAPSSKSTSGGTAALGCLVKDYFPEPVTVSWNSGALTSGVHTFPAVLQSSGLYSLSSVVTVPSSSLGTQTYICNVNHKPSNTKVDKKVEPKSCDKTHTCPPCPAPELLGGPKVFLFPPKPKDTLYISRTPEVTCVVVDVSHEDPEVKFNWYVDGVEVHNAKTKPREEQYNSTYRVVSVLTVLHQDWLNGKEYKCKVSNKALRAPIEKTISKAKGQPREPQVYTLPPSRDELTKNQVSLTCLVKGFYPSDIAVEWESNGQPENNYKTTPPVLDSDGSFFLYSKLTVDKSRWQQGNVFSCSVMHEALHYHVTQKSLSLSP
light: not shown
B6: antibody containing VH3-IgG1-F1317 for the heavy chain and L(WT)-CK for the light chain (antibody)
heavy: QVQLQESGPGLVKPSETLSLTCAVSGHSISHDHAWSWVRQPPGEGLEWIGFISYSGITNYNPSLQGRVTISRDNSKNTLYLQMNSLRAEDTAVYYCARSLARTTAMDYWGEGTLVTVSSASTKGPSVFPLAPSSKSTSGGTAALGCLVKDYFPEPVTVSWNSGALTSGVHTFPAVLQSSGLYSLSSVVTVPSSSLGTQTYICNVNHKPSNTKVDKKVEPKSCDKTHTCPPCPAPELLGGPKVFLFPPKPKDTLYISRTPEVTCVVVDVSHEDPEVKFNWYVDGVEVHNAKTKPREEQYNSTYRVVSVLTVLHQDWLNGKEYKCKVSNKALKAPIEKTISKAKGQPREPQVYTLPPSRDELTKNQVSLTCLVKGFYPSDIAVEWESNGQPENNYKTTPPVLDSDGSFFLYSKLTVDKSRWQQGNVFSCSVMHEALHYHVTQKSLSLSP
light: not shown
B7: antibody containing VH3-IgG1-F939 for the heavy chain and L(WT)-CK for the light chain (antibody)
heavy: QVQLQESGPGLVKPSETLSLTCAVSGHSISHDHAWSWVRQPPGEGLEWIGFISYSGITNYNPSLQGRVTISRDNSKNTLYLQMNSLRAEDTAVYYCARSLARTTAMDYWGEGTLVTVSSASTKGPSVFPLAPSSKSTSGGTAALGCLVKDYFPEPVTVSWNSGALTSGVHTFPAVLQSSGLYSLSSVVTVPSSSLGTQTYICNVNHKPSNTKVDKKVEPKSCDKTHTCPPCPAPELRGGPKVFLFPPKPKDTLYISRTPEVTCVVVDVSHEDPEVKFNWYVDGVEVHNAKTKPREEQYNSTYRVVSVLTVLHQDWLNGKEYKCKVSNKALPAPIEKTISKAKGQPREPQVYTLPPSRDELTKNQVSLTCLVKGFYPSDIAVEWESNGQPENNYKTTPPVLDSDGSFFLYSKLTVDKSRWQQGNVFSCSVMHEALHYHVTQKSLSLSP
light: not shown
B8: antibody containing VH3-IgG1-F1009 for the heavy chain and L(WT)-CK for the light chain (antibody)
heavy: QVQLQESGPGLVKPSETLSLTCAVSGHSISHDHAWSWVRQPPGEGLEWIGFISYSGITNYNPSLQGRVTISRDNSKNTLYLQMNSLRAEDTAVYYCARSLARTTAMDYWGEGTLVTVSSASTKGPSVFPLAPSSKSTSGGTAALGCLVKDYFPEPVTVSWNSGALTSGVHTFPAVLQSSGLYSLSSVVTVPSSSLGTQTYICNVNHKPSNTKVDKKVEPKSCDKTHTCPPCPAPELRGGPKVFLFPPKPKDVLYISRTPEVTCVVVDVSHEDPEVKFNWYVDGVEVHNAKTKPREEQYNSTYRVVSVLQPLHADWLNGKEYKCKVSNKALPAPIEKTISKAKGQPREPQVYTLPPSRDELTKNQVSLTCLVKGFYPSDIAVEWESNGQPENNYKTTPPVLDSDGSFFLYSKLTVDKSRWQQGNVFSCSVMHEALHYHVTQKSLSLSP
light: not shown
B9: antibody containing VH3-IgG1-F1316 for the heavy chain and L(WT)-CK for the light chain (antibody)
heavy: QVQLQESGPGLVKPSETLSLTCAVSGHSISHDHAWSWVRQPPGEGLEWIGFISYSGITNYNPSLQGRVTISRDNSKNTLYLQMNSLRAEDTAVYYCARSLARTTAMDYWGEGTLVTVSSASTKGPSVFPLAPSSKSTSGGTAALGCLVKDYFPEPVTVSWNSGALTSGVHTFPAVLQSSGLYSLSSVVTVPSSSLGTQTYICNVNHKPSNTKVDKKVEPKSCDKTHTCPPCPAPELLGRPKVFLFPPKPKDTLYISRTPEVTCVVVDVSHEDPEVKFNWYVDGVEVHNAKTKPREEQYNSTYRVVSVLTVLHQDWLNGKEYKCKVSNKALPAPIEKTISKAKGQPREPQVYTLPPSRDELTKNQVSLTCLVKGFYPSDIAVEWESNGQPENNYKTTPPVLDSDGSFFLYSKLTVDKSRWQQGNVFSCSVMHEALHYHVTQKSLSLSP
light: not shown
B10: antibody containing VH3-IgG1-F1327 for the heavy chain and L(WT)-CK for the light chain (antibody)
heavy: QVQLQESGPGLVKPSETLSLTCAVSGHSISHDHAWSWVRQPPGEGLEWIGFISYSGITNYNPSLQGRVTISRDNSKNTLYLQMNSLRAEDTAVYYCARSLARTTAMDYWGEGTLVTVSSASTKGPSVFPLAPSSKSTSGGTAALGCLVKDYFPEPVTVSWNSGALTSGVHTFPAVLQSSGLYSLSSVVTVPSSSLGTQTYICNVNHKPSNTKVDKKVEPKSCDKTHTCPPCPAPEAAGGPSVFLFPPKPKDVLYISRTPEVTCVVVDVSHEDPEVKFNWYVDGVEVHNAKTKPREEQYASTYRVVSVLQPLHADWLNGKEYKCKVSNKALPAPIEKTISKAKGQPREPQVYTLPPSRDELTKNQVSLTCLVKGFYPSDIAVEWESNGQPENNYKTTPPVLDSDGSFFLYSKLTVDKSRWQQGNVFSCSVMHEALHYHVTQKSLSLSP
light: not shown
B11: antibody containing VH3-IgG1-F1315 for the heavy chain and L(WT)-CK for the light chain (antibody)
heavy: QVQLQESGPGLVKPSETLSLTCAVSGHSISHDHAWSWVRQPPGEGLEWIGFISYSGITNYNPSLQGRVTISRDNSKNTLYLQMNSLRAEDTAVYYCARSLARTTAMDYWGEGTLVTVSSASTKGPSVFPLAPSSKSTSGGTAALGCLVKDYFPEPVTVSWNSGALTSGVHTFPAVLQSSGLYSLSSVVTVPSSSLGTQTYICNVNHKPSNTKVDKKVEPKSCDKTHTCPPCPAPELLGKPKVFLFPPKPKDTLYISRTPEVTCVVVDVSHEDPEVKFNWYVDGVEVHNAKTKPREEQYNSTYRVVSVLTVLHQDWLNGKEYKCKVSNKALPAPIEKTISKAKGQPREPQVYTLPPSRDELTKNQVSLTCLVKGFYPSDIAVEWESNGQPENNYKTTPPVLDSDGSFFLYSKLTVDKSRWQQGNVFSCSVMHEALHYHVTQKSLSLSP
light: not shown
B12: antibody containing VH3-IgG1-F938 for the heavy chain and L(WT)-CK for the light chain (antibody)
heavy: QVQLQESGPGLVKPSETLSLTCAVSGHSISHDHAWSWVRQPPGEGLEWIGFISYSGITNYNPSLQGRVTISRDNSKNTLYLQMNSLRAEDTAVYYCARSLARTTAMDYWGEGTLVTVSSASTKGPSVFPLAPSSKSTSGGTAALGCLVKDYFPEPVTVSWNSGALTSGVHTFPAVLQSSGLYSLSSVVTVPSSSLGTQTYICNVNHKPSNTKVDKKVEPKSCDKTHTCPPCPAPELKGGPKVFLFPPKPKDTLYISRTPEVTCVVVDVSHEDPEVKFNWYVDGVEVHNAKTKPREEQYNSTYRVVSVLTVLHQDWLNGKEYKCKVSNKALPAPIEKTISKAKGQPREPQVYTLPPSRDELTKNQVSLTCLVKGFYPSDIAVEWESNGQPENNYKTTPPVLDSDGSFFLYSKLTVDKSRWQQGNVFSCSVMHEALHYHVTQKSLSLSP
light: not shown

T1 sequence (P08637 other isoform, or with tags, fused parts or gaps limits assumed): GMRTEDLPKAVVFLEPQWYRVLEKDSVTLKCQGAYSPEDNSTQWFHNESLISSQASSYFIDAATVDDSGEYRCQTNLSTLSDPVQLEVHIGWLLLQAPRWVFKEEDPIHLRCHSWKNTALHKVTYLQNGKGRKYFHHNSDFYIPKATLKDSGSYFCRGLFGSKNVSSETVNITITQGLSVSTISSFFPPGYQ

The experiment addresses T1, human FcγRIIIa(F) (human, UniProt P08637 17-208, limits assumed).
T1 construct: also called hFcgRIIIa(F); allotype F158
In words: SPR (Biacore), antibody captured on Protein L, human FcgR as analyte, pH 7.4, 25 C; amount normalised to captured antibody.
Experimental: Binding activity between the antibodies and human FcγRIa, FcγRIIa(H), FcγRIIa(R), FcγRIIb and FcγRIIIa(F) (hereinafter referred to as human FcγRs) was evaluated using the Biacore T100 or T200 (GE Healthcare). The antibodies being tested were captured by Protein L (ACTIGEN) that was immobilized in suitable amounts on the CM4 Sensor Chip (GE Healthcare) by amine coupling. Next, the diluted human FcγRs and a running buffer used as a blank were injected to allow interaction with the antibodies captured on the sensor chip. A buffer consisting of 20 mmol/L ACES, 150 mmol/L NaCl and 0.05% (w/v) Tween 20 (pH 7.4) was used for the running buffer, and this buffer was also used to dilute the human FcγRs. 10 mmol/L glycine-HCl (pH 1.5) was used to regenerate the sensor chip. All measurements were carried out at 25° C.
Binding activity to human FcγRs can be represented by the relative binding activity to human FcγRs. Antibody was captured by Protein L, and the amount of change in a sensorgram before and after the antibody was captured was defined as X1. Next, human FcγRs were allowed to interact with the antibody, and the value obtained by subtracting binding activity of human FcγRs represented as the amount of change in a sensorgram before and after allowing the running buffer to interact with antibody captured by Protein L (ΔA2) from the value obtained by multiplying by 1500 the value obtained by dividing the binding activity of human FcγRs represented as the amount of change in a sensorgram before and after that interaction (ΔA1) by the captured amount (X) of each antibody, was divided by the captured amount of each antibody (X) followed by multiplying by 1500 to obtain the binding activity of the human FcγRs (Y) (Equation 2).
Consider B1, for which the “BINDING AMOUNT (RU)” value came out at 63.5 RU.
The same measure for B2: 105 RU; for B3: -0.54 RU; for B4: -1.01 RU.
Take B5: the “BINDING AMOUNT (RU)” value was -1.03 RU.
With B6 the figure was -0.94 RU; with B7, 0.51 RU; with B8, -0.68 RU.
For the molecule B9, the “BINDING AMOUNT (RU)” value was -0.26 RU.
Consider B10, for which the “BINDING AMOUNT (RU)” value was -1.85 RU.
The same measure for B11: -0.33 RU.
Consider B12, for which the “BINDING AMOUNT (RU)” value is -0.34 RU.

The values are drawn from US20140105889A1 (published 2014).
